{"source": "paper PMC8444450", "about": "(2021)", "binders": {"B1": {"name": "sybody Sb14 (VHH)", "VHH": "QVQLVESGGGLVQAGGSLRLSCAASGFPVQAREMEWYRQAPGKEREWVAAIKSTGTYTAYAYSVKGRFTISRDNAKNTVYLQMNSLKPEDTAVYYCYVYVGSSYIGQGTQVTVSA"}, "B2": {"name": "sybody Sb16 (VHH)", "VHH": "QVQLVESGGGLVQAGGSLRLSCAASGFPVAYKTMWWYRQAPGKEREWVAAIESYGIKWTRYADSVKGRFTISRDNAKNTVYLQMNSLKPEDTAVYYCIVWVGAQYHGQGTQVTVSA"}, "B3": {"name": "sybody Sb15 (VHH)", "VHH": "QVQLVESGGGLVQAGGSLRLSCAASGFPVKNFEMEWYRKAPGKEREWVAAIQSGGVETYYADSVKGRFTISRDNAKNTVYLQMNSLKPEDTAVYYCFVYVGRSYIGQGTQVTVS"}, "B4": {"name": "sybody Sb68 (VHH)", "VHH": "QVQLVESGGGSVQAGGSLRLSCAASGSISSITYLGWFRQAPGKEREGVAALITVNGHTYYADSVKGRFTVSLDNAKNTVYLQMNSLKPEDTALYYCAAAAWGYAWPLHQDDYWYWGQGTQVTVSA"}}}
{"molecular_target": "T1, SARS-CoV-2 spike receptor-binding domain (amino acids 333–529), bacteria-expressed and refolded (SARS-CoV-2, UniProt P0DTC2 333-529)", "experiment": "SPR", "units": {"Kd": "nM"}}
{"binder": "B1", "Kd": 13.8}
{"binder": "B2", "Kd": 40.6}
{"molecular_target": "T1, SARS-CoV-2 spike receptor-binding …", "experiment": "SPR", "remark": "another data set of the same source", "units": {"koff": "s⁻¹"}}
{"binder": "B1", "koff": 0.007}
{"binder": "B3", "koff": 0.011}
{"binder": "B4", "koff": 0.023}
{"binder": "B2", "koff": 0.02}
